The values below come from patent US7939057B2, “Methods and compositions for modulating the mobilization of stem cells” (Mount Sinai School of Medicine, priority 2006, dated 2011).

One test has as its system α1(I) collagen. The test can be described thus: Q-PCR of α1(I) collagen in BMNCs after G-CSF. The test is classed as in vivo. Conditions: bone marrow of Cgt+/+ mice after G-CSF; n=4, p<0.05. As to the method:
Methods, primers and PCR conditions are available in Table S3. Briefly, total RNA was extracted from BMNC using TRIzol solution (Invitrogen, Carlsbad, Calif.). The bone carcass was then immersed in liquid nitrogen, and pulverized into powder followed by RNA extraction with TRIzol. Total RNA (1 μg) was treated with DNaseI (Invitrogen, Carlsbad, Calif.), and reverse transcribed using first strand cDNA synthesis with random primers (Promega, Madison, Wis.). Q-PCR was performed using SYBR Green (Molecular Probes) on an ABI PRISM 7900HT Sequence Detection System (Applied Biosystems, Foster city, CA). All experiments were done in triplicate and normalized to GAPDH.

In the next test the test system is CXCL12. The test can be described thus: CXCL12 protein by ELISA in BMEF and bone extracts after G-CSF. It is filed as in vivo, mice. As to the method: CXCL12 ELISA was done exactly as described (Petit, I., Szyper-Kravitz, M., Nagler, A., Lahav, M., Peled, A., Habler, L., Ponomaryov, T., Taichman, R. S., Arenzana-Seisdedos, F., Fujii, N., et al. (2002). G-CSF induces stem cell mobilization by decreasing bone marrow SDF-1 and up-regulating CXCR4. Nat Immunol 3, 687-694). Mouse plasma osteocalcin was measured using ELISA kit (Biomedical Technologies Inc., Stoughton, Mass.) according to manufacturer's recommendation.
BMEF was obtained by flushing two femurs with one ml of ice-cold PBS, and the supernatant was harvested after 25 strokes of gentle pipetting followed by centrifugation at 400 g for 5 min. Bone protein extraction was performed as described (Pfeilschifter, J., Laukhuf, F., Muller-Beckmann, B., Blum, W. F., Pfister, T., and Ziegler, R. (1995). Parathyroid hormone increases the concentration of insulin-like growth factor-I and transforming growth factor beta I in rat bone. J Clin Invest 96, 767-774). After extraction, the samples were dialyzed extensively against cold PBS (pH 7.4) for 72 h with a dialysis cassette of 3500 MWCO (Pierce). Volume of dialyzed extracts was measured, centrifuged at 16,000 g for 15 min at 4° C., and the supernatants stored at −80° C. CXCL12 levels in BMEF and bone extracts were determined by ELISA.
For orientation: An ELISA detects its analyte on a solid surface through an enzyme-linked reagent.

B1: G-CSF: recombinant human G-CSF (Filgrastim, Amgen), hematopoietic cytokine used to elicit HSPC mobilization (protein, UniProt P09919 31-207, looked up)
Granulocyte …: TPLGPASSLPQSFLLKCLEQVRKIQGDGAALQEKLVSECATYKLCHPEELVLLGHSLGIPWAPLSSCPSQALQLAGCLSQLHSGLFLYQGLLQALEGISPELGPTLDTLQLDVADFATTIWQQMEELGMAPALQPTQGAMPAFASAFQRRAGGVLVASHLQSFLEVSYRVLRHLAQP
modifications: filgrastim
notes: recombinant human G-CSF (Filgrastim, Amgen), hematopoietic cytokine used to elicit HSPC mobilization
Turning to B1, in the test on α1(I) collagen, the “α1(I) collagen, reduction” value was found to be 92%. Besides, the “CXCL12 protein in BMEF” value in the test with CXCL12 (Cgt+/+ and +/− mice after G-CSF injection) is “greatly reduced”; in the test on CXCL12 (Cgt−/− mice after G-CSF), “significantly reduced”. In addition, the “CXCL12 protein levels in bone” value with CXCL12 (Cgt−/− mice following G-CSF) is listed as “no reduction”. Besides, the “CXCL12 in bone protein extracts” value with CXCL12 (Dbh+/− mice following G-CSF) is “reduced”. Besides, the “CXCL12 levels in bone protein extracts” value with CXCL12 (Dbh−/− animals following G-CSF) is recorded as “maintained”. Further, in the test on CXCL12 (normal littermate mice following G-CSF), the “CXCL12 protein in bone” value is reported as “decreased”.
